Experimental data published in FireProtDB (doi:10.1002/pro.5560041207).

Conditions: Cereibacter sphaeroides, pH 7.4, 23 °C, Urea, Fluorescence, whole UniProt chain shown

B1: Thioredoxin wild type, P08058 (protein)
chain: MSTVPVTDATFDTEVRKSDVPVVVDFWAEWCGPCRQIGPALEELSKEYAGKVKIVKVNVDENPESPAMLGVRGIPALFLFKNGQVVSNKVGAAPKAALATWIASAL
- unfolding free energy (Potassium phosphate 20 mM): 8.2 kcal/mol
- unfolding free energy (Potassium phosphate 20mM): 8.13 kcal/mol
